Data from the DeepSol protein solubility set.

Assay: soluble on expression in E. coli; label from the status in PepcDB or PDB records

Row | Sequence | soluble on expression in E. coli
1 | MSLGAYLSSPKTNKESLDGGNLELDPSRYGLSCMQGWRKNMEDAHICYNNLKFNEIEEDVSIYGVFDGHGGPNVSKWISYNFRRIFIRCLKEANAGETGEDDCNGVYSSEELRLFENYYSNDYEDNIAYSCGSTALVAVILKGYLIVANAGDSRAIVCFNGNSLGMSTDHKPHLQTEEARIKKAGGYIANGRVDGNLNLTRAIGDLHYKRDPFLPQKDQKISAFPEITCVTLTPEDEFLFLACDGIWDCKDGQDVVGFVKTRLEKFEEIPDDPNNSLDNTENSEHMNTNNNSDQNEKLKSEEGHHHHHH | soluble
2 | RPGGDAREPRKIILHKGSTGLGFNIVGGEDGEGIFVSFILAGGPADLSGELRRGDRILSVNGVNLRNATHEQAAAALKRAGQSVTIVAQYRPEEYSRFES | soluble
3 | MKTRKIPLRKSVVSNEVIDKRDLLRIVKNKEGQVFIDPTGKANGRGAYIKLDNAEALEAKKKKVFNRSFSMEVEESFYDELIAYVDHKVKRRELGLE | soluble
4 | MPSSPAERYAQALASGQFMPDEAQAQAVQELERVWQELLSRYKASKKAFRRFRRQTSPKGVYMWGGVGRGKTWLMDQFYDSIPFRRKTRMHFHHFMQHVHRELNKLSGQRNPLDLVADQIYKDAVIICFDEFFVSNVTDAMILSDLFQKLFNRGVTLVATSNIAPDGLYKNGIHRDRFLPTIELVQKNCTILNVDAGVDYRLRVLKQAQLFKHPLTDDAKIWMSQRFSAITRSQIVSQQPITINNRVVETLGHTEDVLWCEFSELCLKPRSPADFIEIANIYNTVLVSNVPHLTDYLSEGTRRFIYLVDEFYDRGVKLLLTSQDSIIEIYEGEKLAFEIERTRSRLLEMQSDEYLHSLEHHHHHH | soluble
5 | VEKVFVVGHKNLDMDALGATVGMAHFASQIVRKSYAVYDDMAMNTDIERAVERLKEDGQSPLITLSEAEELVNQHSLLIMVDHSKINLTLSQDFYDRFNEVIVVDHHRRDDDFPENAVLTFIESGASSACELVTELLQFQGAPERLSKIQASILMAGIMLDTKNFSTRVTSRTFDVASYLRSLGSDSGEIQMISATDF | not soluble
6 | MKVRVKAPCTSANLGVGFDVFGLCLKEPYDVIEVEAIDDKEIIIEVDDKNIPTDPDKNVAGIVAKKMIDDFNIGKGVKITIKKGVKAGSGLGSSAASSAGTAYAINELFKLNLDKLKLVDYASYGELASSGAKHADNVAPAIFGGFTMVTNYEPLEVLHIPIDFKLDILIAIPNISINTKEAREILPKAVGLKDLVNNVGKACGMVYALYNKDKSLFGRYMMSDKVIEPVRGKLIPNYFKIKEEVKDKVYGITISGSGPSIIAFPKEEFIDEVENILRDYYENTIRTEVGKGVEVV | soluble
7 | MEFLLLDDRENLKLAIIRKLEQQYSFSERKDRLCKQLAISPYLLERNITEINADLQRFGLINEMEISEKNNEILLSQSLRISSSIIEEYYLKDSLEFNLLKTIFFHQFTSIKKYGEKHGMSRTVVYKIVDHIRKELGQYGIKLSKNLQLSGNEMAIRQYFTMLYYRIYKDSEELYNQTDLRAVNQLLAQLKGSYENITNFHLFKHYVLVALERTQRKANYFLSQEENPFAFDEESSIYQEIQSWINEVMKATHAEKNAEIQGIIGNLSVYQSELISEHLLSSHNEAITATKTLFFSYMPFTISDEEFYQEIVPIIYQHRFITPFIDITLRIMDLEFFQERYPIVFNSCRQFLFALDCSAFEFSKLSLFFDLLLVLSRLYDQRNEKSTINLYVNFTQGEKYTQFIKEQIKIFESFSIHFHSAIRPDTDLVVSDYLPKTLFSVKCLIWLAPPRASDWQNFGNEIVRINKELQQTKQRKSE | not soluble
8 | MDEGMQIVGAVSGLSTPFNQNVSLECYNGILSMLLNGAPLADILHALVLKIEDQRLGTHASVLLLSEDGKRVLTGAAPHLPDSYNQVIHGVEIGPEVGSCGTAAYTGQRVIVEDIEHHPYWALYKSFALVHGLRACWSEPIKDTQGKVLGTFAMYYKEIKSPTVADLTLIAEAARLASLAIERSRSLEFQRLAVKIFDRLPLALVITNASHSVLYANDAFKLMVCLQPDDILAFNPEQFFSPSEPHEIASLFNHLSEGKMWQGELVGLRNNGETFYLDLTVTVFRESHSADLGFAWLFSDVSERKKAAQLIKYQANNDSLTGLANRNALFRQIQELINADSLTPGFSFMLMDLDNFKQVNDTYGHDKGDVLLVQMVEQVKICLDPQAVFARLGGDEFAILLPGVVTQRELSQLADKINKQVYRRYELSHDKGVYSSVSIGIARFPEDALDLEQLLNCADQAMYISKANGRNRYHFFTEQMQQNAERIANLHTLLKQALEQNAFELYFQPIVDATTGLIVRAEVLLRWQHEGQFISPDEFIPIAENSGLIVSIGRCVRQAVMQTIVEMQALGWPMSLAINVSTFEFWSHELQDEFCDSFTDIIEGLGVEDFPYELITLEITESLLMKKHAHLIQVLNELRARGIKISLDDFGTGYSSLSYLANFPIDQIKIDKSFIDRLAEGERHLALIEAIVRLSHALNLRVTAEGVETQEQLQVMMDNHIQEIQGYLFYKPIPKAVFFELLAKQAVISPHSLEHHHHHH | not soluble
9 | MCGRYALFSTPETLRETFGLTTAPVEPTYNAAPSQSLPVILDTEPTETVRARWGLVPSWSDGPQSAPDPINARAETLTETRHFQAAYEHRRCLVPVDGFYEWRDEDGATVPYFVSRTDGAPFLLAGLWETWTPEQTQTGLGEFTGDDGPSRDPETVRSFTVVTTQPNAFLADYHHRMAVVLTPAQGQRWLTDDDPTDLFTPGAFDLQAWRVSTAVNDPTVDRPALVEPALEHHHHHH | not soluble
10 | YDYSNPATLFTLSDIGVSAHRYHNRLDIFTQSLENGAAQQGIEVSLLNEKGQTLTQASSDAQGHVQLENDKNAALLLARKNGQTTLLDLKLPALDLAEFNIAGAPGYSKQFFMFGPRDLYRPGETVILNGLLRDADGKALPDQPIKLDVIKPDGQVLRSVVSQPENGLYHFTWPLDSNAATGMWHIRANTGDNQYRMWDFHVEDFMPERMALNLTGEKTPLTPKDEVKFSVVGYYLYGAPANGNTLQGQLFLRPLREAVSALPGFEFGDIAA | not soluble
11 | MPAEPQKSTEAGSVAPEKKLKACCACPETKRVRDACIIENGEEKCGKLIEAHKACMRAAGFNI | soluble
12 | MGSDKIHHHHHHMQALRKCYGIVGADDIVSEMKTWQVTSNDPHEGLTKWADGLDEAFVQLEPVATTGDGFYGHIQQTSTAELDVSVVTSTGHEIRRLDRHIRHRSADLLYVNILGRGRSEVSQRDTVVAAPMDVSIVDPRAPYSIRQEAPFQLVSIAVPPDWVEREARHCHFLSRTAAGRELSSVVWGLAKMLLAIKPDQDGLATSLAQQIHHSLALLPEMAGSDATPRVSVAMLQSYVQRHFSQPDLRAEHLARQFGISVRRVHQLFEPTGHTVSEFINDLRLARAADCLGDAALARRTISEIAWQVGYSDPSYFTRRFKRRYGCSPRAYRAAHHPAPIARLS | not soluble
13 | SSEAYFPVESGALGPEENFLSLDDILMSQEKLPVRVETPMPRLGAFFLERGAGSEPDHPLPQGTKLELPLWLAKGLFDHKRRILSVELPKMYQEGWRTVFSADANVVDLHKMGPHFYGFGSQLLHFDSPENADISQSLLKTFIGRFRRIMDSSQNSYNEDTSALVARLDETERGLFQIGQRSLNDFQSWEKGQASQITASSLVQNYKKRKFTNMED | soluble
14 | MGSDKIHHHHHHMKILICDDDSSITQSLSLIIKTYFNKKKVNNLDIVTFNDGDSLLSDKSQKDIIFLDIEMPGFDGIYVGNELKKQNDSVIIFIVTSYLEYLDAAMRFHVFRYLSKPIDKQRLFQNLDDALELYYSINQKIAVETKYGVTSVLTCDIVYVEAKGRKVIVHTATADLDSTQTLQFWIEHLPQATFFQSHRSYIVNMAMVTSFDHELIYLCDGQFTAYLTRRKFTEFKRAYLMFMESKR | not soluble
15 | MGDVAGMAYLDSMSNEKVWFGYTLKEAQAQQIGLGLDLKGGMNVILKLNASDLLRNLSNKSLDPNFNKALENAAKSTEQSDFIDIFVKEYRKLDPNGRLAVIFGSGDLRDQITAKSTDADVVRLLKEKYNSAVEASFNVLRARIDAFGVVAPNLQRLEGQGRILVELPGVKDPERVRTLLQRSANLQFWRTYKFEEVSGDLIAANDRLSELAMNNTDATPETEPATTDSVAATADSAAVQAVADSATVAQKEAKDATRKDALFSLLTPVNRGGAVVGVARRANMAQISEMLQQAHDLKVTREDVLFLWGAKAIEDPETKKETDLYELYAIRTNRTGDPDLGGDVVTSAKSDIQNDFGRSEPIVSMTMNEEGARKWARITKDNVGRAIAIVLDGVVYSAPNVNDEITGGRSQISGHFTVEEAGDLANVLNSGKMDATVSIEQENVIGPTLGAESIKA | not soluble
